Assay results taken from patent publication US6867003.

Biological target: insulin receptor partially purified from CHO-IR cells (Chinese Hamster Ovary cells expressing high levels of insulin receptors of human origin) (human) (UniProt P06213)
Experiment: cell-based or functional assay

Sequence of GST-rGrb14 (O88900 whole entry): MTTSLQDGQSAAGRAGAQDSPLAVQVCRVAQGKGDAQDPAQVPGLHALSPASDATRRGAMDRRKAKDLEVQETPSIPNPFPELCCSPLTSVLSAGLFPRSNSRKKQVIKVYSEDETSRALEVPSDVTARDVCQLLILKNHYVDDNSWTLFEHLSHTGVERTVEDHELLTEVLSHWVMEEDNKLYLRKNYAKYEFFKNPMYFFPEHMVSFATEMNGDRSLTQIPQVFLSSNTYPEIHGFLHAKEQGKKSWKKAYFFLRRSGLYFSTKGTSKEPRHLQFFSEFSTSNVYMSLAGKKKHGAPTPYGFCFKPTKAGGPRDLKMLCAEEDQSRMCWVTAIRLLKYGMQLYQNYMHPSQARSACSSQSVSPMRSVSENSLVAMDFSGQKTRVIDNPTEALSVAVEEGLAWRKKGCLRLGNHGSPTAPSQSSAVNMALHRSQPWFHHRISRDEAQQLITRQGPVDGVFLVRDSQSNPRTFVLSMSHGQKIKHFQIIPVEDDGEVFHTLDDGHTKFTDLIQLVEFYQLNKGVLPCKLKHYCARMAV
Sequence of GST-PIR+SH2 of rGrb14 (O88900 353-538): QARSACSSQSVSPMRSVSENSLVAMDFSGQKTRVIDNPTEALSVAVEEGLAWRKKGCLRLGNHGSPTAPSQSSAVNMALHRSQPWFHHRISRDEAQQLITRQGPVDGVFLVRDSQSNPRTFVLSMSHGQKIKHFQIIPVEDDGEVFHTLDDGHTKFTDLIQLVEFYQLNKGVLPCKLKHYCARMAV

GST-rGrb14 (from UniProt O88900 1-538)
amount giving 50% inhibition of the tyrosine kinase activity of the receptors (32P incorporation into poly Glu-Tyr): 0.04 µg

GST-PIR+SH2 of rGrb14 (from UniProt O88900 353-538)
amount giving the maximum inhibitory effect on the tyrosine kinase activity of the insulin receptors: 0.03 µg

GST-rGrb7 (from UniProt Q9QZC5 1-535)
maximum inhibition of the tyrosine kinase activity of the insulin receptors: 40%

GST-PIR of rGrb14 (from UniProt O88900 353-436)
amount giving total inhibition of the tyrosine kinase activity of the insulin receptors: 0.3 µg
